Where no end group is shown, it is not given here. [ ]: non-standard residue; d: D form.

The source of these data is patent US8221773B2, “Hydrogels and uses thereof” (University of Delaware, priority 2004, dated 2012).

The conditions of series [1]: cited from earlier work.
A short description of series [2]: Temperature dependent CD: temperature at which folding and self-assembly is triggered (Tgel). The format is physicochemical. The conditions noted are these: for temperature at which folding and consequent self-assembly is triggered (Tgel): 150 μM peptide, 125 mM Borate, 10 mM NaCl, pH 9, CD ellipticity at 218 nm. An excerpt: At low temperature MAX1 is unfolded (and unassembled). At high temperature MAX1 folds into beta-sheet (and consequently self-assembles into a hydrogel). […] The relative hydrophobicity is MAX1>MAX2>MAX3 due to the isostructural but less hydrophobic substitutions of threonine for valine at the underlined positions. The most hydrophobic folds at the lowest temperature while the least hydrophobic folds at the highest temperature. This is a direct manifestations of the molecular parameter manipulations described in FIG. 2. Also shown are the calculated free energy of transfer of each corresponding unfolded peptide having an overall +8 charge state from octanol into water at 25° C. MAX1, the most hydrophobic has the highest free energy of transfer equal to 7.60 kcal/mol. MAX2 has a calculated transfer free energy of 6.88 kcal/mol, while the least hydrophobic MAX3 has the lowest energy of transfer of 6.45 kcal/mol.
This allows the characteristics of the hydrogels of the invention to be varied by adjusting these parameters. […] It is well known that water is better able to solvate hydrophobic groups at low temperatures. This phenomenon has been used to describe the cold denaturation of proteins where some proteins unfold at low temperatures, exposing their hydrophobic interiors to aqueous solvent. A 150 μM aqueous solution of MAX1 unfolds when cooled below room temperature. The CD spectrum at 5° C. is consistent with random coil conformation, FIG. 9A. However, warming the solution to 40° C. results in a spectra consistent with β-sheet structure. […] In fact, previous studies involving the pH induced folding and self-assembly of MAX1 were performed at 20° C. At this temperature, folding and self-assembly are slow enough to be conveniently monitored. At higher temperatures, folding and self: assembly leading to hydrogelation is fast (instantaneous to seconds depending on concentration). If the formation of hydrophobic interactions affects the folding and self-assembly process, then altering the hydrophobic content of MAX1 should affect the temperature at which folding is triggered. […] MAX2 is identical to MAX1 except that one valine residue has been replaced with the isostructural, but less hydrophobic residue, threonine. In MAX3, two valines are replaced with threonine residues. The resulting peptides vary in their hydrophobicity as evident by comparing calculated free energies of transfer from octanol into water, FIG. 9. […] Thus, the formation of hydrophobic contacts influences folding and self-assembly. […] Thus, the characteristics of the hydrogels of the invention can be varied by adjusting the amino acid residues of the peptides used to form the hydrogels to increase or decrease the hydrophobicity of the amino acid residues used.
There are reports of large polymers that are thermally responsive. The present invention provides the first system that employs temperature triggered folding to induce self-assembly. […] Heating the solution to 80° C. results in a spectra consistent with β-sheet structure. […] The temperatures used in both CD and rheology bracket the temperature (Tgel=60° C., FIG. 9) at which folding and consequent self-assembly is triggered. […] For example, free flowing peptide solutions could be prepared at room temperature and administered in vivo where the temperature of the body could induce gelation. […]

Series [3] can be described thus: Hydrogelation by folding and self-assembly. The format is physicochemical. The conditions noted are these: for reversibility of thermally induced hydrogelation: pH 9, heating/cooling cycles. Here is the method:
The ability of MAX1 to undergo hydrogelation is dependent upon its unimolecular folded state. Under basic aqueous solution conditions (pH 9.0, 125 mM Borate, 10 mM NaCl), where some of the lysine side chains of MAX1 are neutral, this peptide intramolecularly folds into an amphiphilic β-hairpin (folding can also be triggered at pH 7 under physiological conditions). One face of the hairpin is lined with hydrophobic valine residues while the other face is lined with hydrophilic lysine residues, FIGS. 2 and 3A. After intramolecular folding, subsequent self-assembly of hairpins is facilitated (a) laterally via H-bond formation and attractive hydrophobic interactions between distinct hairpins as well as (b) facially by hydrophobic association of the valine-rich faces of the folded peptide resulting in hydrogelation, FIG. 3B. Since the charged state of the lysine residues are controlled by pH, the unimolecular folding is reversible. Lowering the pH below the intrinsic pKa of the lysine side chains results in intra-strand charge repulsion from neighboring lysines and subsequent unfolding of individual hairpins, ultimately dissolving the self-assembled hydrogel structure. This reversible behavior is unique when compared to β-sheet-rich hydrogels prepared from classical fibril-based designs. In these systems, the self-assembly process is irreversible.
There are reports of large polymers that are thermally responsive. The present invention provides the first system that employs temperature triggered folding to induce self-assembly. […] Heating the solution to 80° C. results in a spectra consistent with β-sheet structure. […] The temperatures used in both CD and rheology bracket the temperature (Tgel=60° C., FIG. 9) at which folding and consequent self-assembly is triggered. […] For example, free flowing peptide solutions could be prepared at room temperature and administered in vivo where the temperature of the body could induce gelation. Some Poly-N-isopropylacrylamide polymers have been engineered have been engineered to undergo such transitions ultimately affording extracellular-like scaffolds for tissue regeneration. The above studies support the idea that the formation of hydrophobic interactions are important. MAX1-3 all contain valines and threonines at hydrogen bonded positions. At these positions, their side chains prefer to adopt a trans rotamer. As a result, hydrophobic residues that oppose each other across the hairpin point their side chains in opposite directions thus making the formation of intramolecular hydrophobic interactions across the strands difficult, FIG. 11A. However, these side chains are nicely positioned to interact laterally with the hydrophobic side chains of neighboring hairpins in the self-assembled state, FIG. 11B. Forming these lateral hydrophobic interactions should favor self-assembly. […] In MAX4, opposing valine side chains are expected to point towards each other, FIG. 11B. Thus, the valine side chains of MAX4 are less likely than those in MAX1 to form lateral intermolecular hydrophobic interactions. If the formation of lateral intermolecular hydrophobic interactions is of more importance for self-assembly than intramolecular hydrophobic contacts, then the rate of self-assembly should be faster for MAX1 than for MAX4. This difference in rate should be evident in the rate of storage moduli (rigidity) increase. […] (Tgel=20° C. for both peptides). […]

A short description of series [4]: CD spectroscopy of peptide folding (random coil vs β-sheet). The format is physicochemical. The conditions noted are these: 150 μM solution, pH 9.0, 125 mM Borate, 10 mM NaCl. Here is the method:
Time-dependent circular dichroism (CD) studies support a hydrogelation mechanism consistent with intramolecular hairpin formation followed by self-assembly. […] At temperatures >25° C. the folding and self-assembly of MAX1 occurs on the order of seconds. […] This behavior is consistent across all spectro- and microscopic methods used to interrogate MAX1. For example, at micromolar concentrations used for the CD studies shown in FIGS. 4A and 4B, self-assembly takes hours at 20° C. At millimolar concentrations, such as those used in the rheological studies described below, self-assembly leading to hydrogel takes minutes at 20° C.
The reversibility of the folding and self-assembly process was investigated by measuring θ216 as a function of pH and time as shown in FIG. 4C. CD of a stirred solution of MAX1 at pH 5.5 indicates random coil conformation. Adjusting the pH to 9.0 by the addition of NaOH results in β-sheet formation as expected. However, subsequent adjustment of the pH to 6.0 results in complete loss of sheet signal and full recovery of random coil signal. […] Again, this reversible behavior is not observed in hydrogels formed from amyloid/prion-like fibrils.
In some embodiments of the invention, various functionalities (e.g., cell adhesion epitopes, receptor agonists, receptor antagonists, ligands, small molecules, etc) may be incorporated into the hairpin hydrogel scaffold. One way to accomplish this would be to functionalize one or more amino acid side chains of the peptide. […] In some embodiments, the moieties to be incorporated at a particular side chain may be much larger (e.g. RGD-based motifs) and may contain charged residues. MAX5 (VKVKVKVKV^DPPTKVKEKVKV-NH2) was prepared to investigate the possibility of incorporating a charged residue on the hydrophobic face of MAX1. The sequence contains a glutamic acid residue at position 16 which is negatively charged at basic pH where MAX1 normally folds and assembles. […] However, alterations to the hydrophilic face of MAX1 are well tolerated. Sequences in which one or two lysine residues are replaced with other residues such as cysteine, serine, and glutamic acid are capable of folding and self-assembly into rigid hydrogels (data not shown).
The peptides described above contain identical turn sequences, namely (-V^DPPT-). This sequence has a strong propensity to form a type II′ turn and therefore helps to drive intramolecular folding. Since intramolecular folding must occur prior to self-assembly, alterations to this turn sequence that inhibit turn structure formation can be used to modulate intramolecular folding and self-assembly leading to hydrogelation. MAX9 was prepared to probe the importance of the turn region (VKVKVKVKV^LPPTKVKVKVKV-NH2). […]

For `NC(=O)CN1CCN(CC(N)=O)CCN(CC(N)=O)CCN(CC(N)=O)CC1` [DOTAM], the Kd in series [1] (read-out: Kd for calcium) was 29 nM.
For the compound -DRKADGYIDFEE-, in series [1] (linear peptide), the “Kd for Ca(II)” value is reported as “low mM”.
“KVKVKVKV K^DPPS VKVKVKVK-NH2 (chain 1 KVKVKVKVK[dP]PS; not fully specified) [MAX4]”: in series [2], the “temperature at which folding and consequent self-assembly is triggered (Tgel)” value amounted to 20 °C.
“VKVKVKTK V^DPPT KVKTKVKV-NH2 (not fully specified (C-terminus)) [MAX3]”: in series [2], the “temperature at which folding and consequent self-assembly is triggered (Tgel)” value worked out at 60 °C. Moreover, the “reversibility of thermally induced hydrogelation” value in series [3] is “thermally reversible”.
In the case of “VKVKVKVK VPPT KVKVKVKV-NH2 (VKVKVKVKVPPTKVKVKVKV-NH2) [MAX9]”, the “conformation by CD under folding conditions” value in series [4] was “only random coil”. Also, the “hydrogelation under folding conditions” value in series [3] (2 wt % solutions) was “failed to undergo hydrogelation”.
For “VKVKVKVK V^DPPT KVKCKVKV-NH2 (not fully specified (C-terminus)) [MAX6]”, the “ability to fold and self-assemble” value in series [3] is “folds and self-assembles”.
In the case of VKVKVKVK V^DPPT KVKEKVKV-NH2 [MAX5], in series [4], the “conformation by CD under folding conditions” value was “random coil”.
Consider “VKVKVKVK V^DPPT KVKTKVKV-NH2 (not fully specified (C-terminus)) [MAX2]”, for which, in series [2] (pH 9 (10 mM NaCl)), the “temperature above which peptide folds/self-assembles” value is “greater than 45 °C” and the “temperature below which peptide is unfolded” value was “below 40 °C”. The “reversibility of thermally induced hydrogelation” value in series [3] was “not reversible”.
